Experimental data from patent US20190271705A1.
Positions count from the first letter of the chain named. In names and notes the source's numbering stands.

How the values were obtained:
[1] = molecular target: seven peptides (fluorescein-labeled pTyr-containing peptides of the fluorescence polarization assay); test: fluorescence polarization in solution, SH2 domain titrated against fluorescein-labeled peptide
[2] = molecular target: seven peptides (fluorescein-labeled pTyr-containing peptides of the fluorescence polarization assay); test: fluorescence polarization in solution; average over seven peptides, reference wild-type Fyn SH2 domain

B1: wild-type Fyn SH2 domain (hexa-histidine-tagged construct, SEQ ID NO:4) (protein)
chain: MKIEEHHHHHHSSGRENLYFQGGAAQPAAPVDSIQAEEWYFGKLGRKDAERQLLSFGNPRGTFLIRESETTKGAYSLSIRDWDDMKGDHVKHYKIRKLDNGGYYITTRAQFETLQQLVQHYSERAAGLSSRLVVPSHKGAAA
With B1 the Kd [1] was 10 µM.

B2: T8V variant Fyn SH2 domain (designed binder)
chain: B1 chain with T71V
B2 showed an average fold affinity increase (Kd[wild-type] divided by Kd[variant]) [2] of 1.4 fold.

B3: T8I/S10A/K15L variant Fyn SH2 domain (designed binder)
chain: B1 chain with T71I, S76A, K94L
In the case of B3, the average fold affinity increase (Kd[wild-type] divided by Kd[variant]) [2] is reported as 86.4 fold.
